Results taken from IntAct's records for PubMed 31515488.

B1: STAM-binding protein (Homo sapiens), O95630 (parent)
chain: MSDHGDVSLPPEDRVRALSQLGSAVEVNEDIPPRRYFRSGVEIIRMASIYSEEGNIEHAFILYNKYITLFIEKLPKHRDYKSAVIPEKKDTVKKLKEIAFPKAEELKAELLKRYTKEYTEYNEEKKKEAEELARNMAIQQELEKEKQRVAQQKQQQLEQEQFHAFEEMIRNQELEKERLKIVQEFGKVDPGLGGPLVPDLEKPSLDVFPTLTVSSIQPSDCHTTVRPAKPPVVDRSLKPGALSNSESIPTIDGLRHVVVPGRLCPQFLQLASANTARGVETCGILCGKLMRNEFTITHVLIPKQSAGSDYCNTENEEELFLIQDQQGLITLGWIHTHPTQTAFLSSVDLHTHCSYQMMLPESVAIVCSPKFQETGFFKLTDHGLEEISSCRQKGFHPHSKDPPLFCSCSHVTVVDRAVTITDLR
B2: DNA mismatch repair protein Mlh1 (Homo sapiens), P40692 (parent)
chain: MSFVAGVIRRLDETVVNRIAAGEVIQRPANAIKEMIENCLDAKSTSIQVIVKEGGLKLIQIQDNGTGIRKEDLDIVCERFTTSKLQSFEDLASISTYGFRGEALASISHVAHVTITTKTADGKCAYRASYSDGKLKAPPKPCAGNQGTQITVEDLFYNIATRRKALKNPSEEYGKILEVVGRYSVHNAGISFSVKKQGETVADVRTLPNASTVDNIRSIFGNAVSRELIEIGCEDKTLAFKMNGYISNANYSVKKCIFLLFINHRLVESTSLRKAIETVYAAYLPKNTHPFLYLSLEISPQNVDVNVHPTKHEVHFLHEESILERVQQHIESKLLGSNSSRMYFTQTLLPGLAGPSGEMVKSTTSLTSSSTSGSSDKVYAHQMVRTDSREQKLDAFLQPLSKPLSSQPQAIVTEDKTDISSGRARQQDEEMLELPAPAEVAAKNQSLEGDTTKGTSEMSEKRGPTSSNPRKRHREDSDVEMVEDDSRKEMTAACTPRRRIINLTSVLSLQEEINEQGHEVLREMLHNHSFVGCVNPQWALAQHQTKLYLLNTTKLSEELFYQILIYDFANFGVLRLSEPAPLFDLAMLALDSPESGWTEEDGPKEGLAEYIVEFLKKKAEMLADYFSLEIDEEGNLIGLPLLIDNYVPPLEGLPIFILRLATEVNWDEEKECFESLSKECAMFYSIRKQYISEESTLSGQQSEVPGSIPNSWKWTVEHIVYKALRSHILPPKHFTEDGNILQLANLPDLYKVFERC

Variants of: B1
Conditions: with grb2_human GRB2, P62993

effect of a mutation on the interaction | Variant
disrupting interaction strength | MSDHGDVSLPPEDRVRALSQLGSAVEVNEDIPPRRYFRSGVEIIRMASIYSEEGNIEHAFILYNKYITLFIEKLPKHRDYKSAVIPEKKDTVKKLKEIAFPKAEELKAELLKRYTKEYTEYNEEKKKEAEELARNMAIQQELEKEKQRVAQQKQHQLEQEQFHAFEEMIRNQELEKERLKIVQEFGKVDPGLGGPLVPDLEKPSLDVFPTLTVSSIQPSDCHTTVRPAKPPVVDRSLKPGALSNSESIPTIDGLRHVVVPGRLCPQFLQLASANTARGVETCGILCGKLMRNEFTITHVLIPKQSAGSDYCNTENEEELFLIQDQQGLITLGWIHTHPTQTAFLSSVDLHTHCSYQMMLPESVAIVCSPKFQETGFFKLTDHGLEEISSCRQKGFHPHSKDPPLFCSCSHVTVVDRAVTITDLR [Q155H]

Variants of: B1
Conditions: with stam2_human STAM2, O75886

effect of a mutation on the interaction | Variant
disrupting interaction strength | MSDHGDVSLPPEDRVRALSQLGSAVEVNEDIPPRRYFRSGVEIIRMASIYSEEGNIEHAFILYNKYITLFIEKLPKHRDYKSAVIPEKKDTVKKLKEIAFPKAEELKAELLKRYTKEYTEYNEEKKKEAEELARNMAIQQELEKEKQRVAQQKQHQLEQEQFHAFEEMIRNQELEKERLKIVQEFGKVDPGLGGPLVPDLEKPSLDVFPTLTVSSIQPSDCHTTVRPAKPPVVDRSLKPGALSNSESIPTIDGLRHVVVPGRLCPQFLQLASANTARGVETCGILCGKLMRNEFTITHVLIPKQSAGSDYCNTENEEELFLIQDQQGLITLGWIHTHPTQTAFLSSVDLHTHCSYQMMLPESVAIVCSPKFQETGFFKLTDHGLEEISSCRQKGFHPHSKDPPLFCSCSHVTVVDRAVTITDLR [Q155H]

Variants of: B2
Conditions: with msh3_human MSH3, P20585

effect of a mutation on the interaction | Variant
with no effect | S406N
with no effect | V384D

Continued, variant first:

Variant | effect of a mutation on the interaction
V213M | with no effect
V326A | disrupting interaction strength

Variants of: B2
Conditions: with ima1_human KPNA2, P52292

effect of a mutation on the interaction | Variant
with no effect | S406N
with no effect | V384D

Second part, the variant before the results:

Variant | effect of a mutation on the interaction
V213M | with no effect
V326A | disrupting interaction strength

Variants of: B2
Conditions: with psa1_human PSMA1, P25786

effect of a mutation on the interaction | Variant
with no effect | S406N
with no effect | V384D

Continued, variant first:

Variant | effect of a mutation on the interaction
V213M | with no effect
V326A | disrupting interaction strength
